Assay results as given in US20230140293A1.

Tests used:
Assay in all cases: cell-based or functional assay
[1] = target: CH0505TF Env, Env-pseudotyped virus produced in 293T cells (HIV-1)
[2] = target: HIV-1 426c.TM (N276D/N460D/N463D) Env on Env-pseudotyped virus produced in 293s/GnTI-/- cells (Man5-enrichment) (HIV-1)
[3] = target: CH0505TF.gly4 Env, Env-pseudotyped virus produced in 293T cells (HIV-1)
[4] = target: HIV-1 Env 426c.TM (N276D.N460D.N463D), Env-pseudotyped virus produced in 293S GnTI- cells (Man5-enriched) (HIV-1 clade C strain 426c)
[5] = target: HIV-1 Env 426c.SM (N276D), Env-pseudotyped virus produced in 293T cells (HIV-1 clade C strain 426c)
[6] = target: CH0505TF.gly3.276 Env, Env-pseudotyped virus produced in 293T cells (HIV-1)
[7] = target: HIV-1 Env 426c, Env-pseudotyped virus produced in 293S GnTI- cells (Man5-enriched) (HIV-1 clade C strain 426c)
[8] = target: HIV-1 426c.DM (N460D/N463D) Env on Env-pseudotyped virus produced in 293s/GnTI-/- cells (Man5-enrichment) (HIV-1)
[9] = target: HIV-1 Env 426c.DM (N460D.N463D), Env-pseudotyped virus produced in 293S GnTI- cells (Man5-enriched) (HIV-1 clade C strain 426c)
[10] = target: HIV-1 426c.SM (N276D) Env on Env-pseudotyped virus produced in 293T cells (HIV-1)
[11] = target: CH0505TF.G458Y Env, Env-pseudotyped virus produced in 293T cells (HIV-1)
[12] = target: CH0505TF.gly3.461 Env, Env-pseudotyped virus produced in 293S GnTI- cells (Man5-enriched) (HIV-1)
[13] = target: CH0505TF.gly3.276 Env, Env-pseudotyped virus produced in 293S GnTI- cells (Man5-enriched) (HIV-1)
[14] = target: CH0505TF Env, Env-pseudotyped virus produced in 293S GnTI- cells (Man5-enriched) (HIV-1)
[15] = target: CH0505TF.gly3.197 Env, Env-pseudotyped virus produced in 293T cells (HIV-1)
[16] = target: CH0505.w4.3 Env, Env-pseudotyped virus produced in 293T cells (HIV-1)
[17] = target: HIV-1 Env 426c, Env-pseudotyped virus produced in 293T cells (HIV-1 clade C strain 426c)
[18] = target: CH0505TF.gly3.197 Env, Env-pseudotyped virus produced in 293S GnTI- cells (Man5-enriched) (HIV-1)
[19] = target: HIV-1 Env 426c.TM4 (S278R.G471S.N460D.N463D), Env-pseudotyped virus produced in 293S GnTI- cells (Man5-enriched) (HIV-1 clade C strain 426c)
[20] = target: CH0505TF.gly4 Env, Env-pseudotyped virus produced in 293S GnTI- cells (Man5-enriched) (HIV-1)
[21] = target: HIV-1 clade C strain 426c Env on Env-pseudotyped virus produced in 293T cells (HIV-1)
[22] = target: CH0505TF.G458Y Env, Env-pseudotyped virus produced in 293S GnTI- cells (Man5-enriched) (HIV-1)
[23] = target: CH0505TF.gly3.461 Env, Env-pseudotyped virus produced in 293T cells (HIV-1)
[24] = target: HIV-1 Env 426c.TM (N276D.N460D.N463D), Env-pseudotyped virus produced in 293T cells (HIV-1 clade C strain 426c)
[25] = target: HIV-1 Env 426c.DM (N460D.N463D), Env-pseudotyped virus produced in 293T cells (HIV-1 clade C strain 426c)
[26] = target: HIV-1 426c.TM (N276D/N460D/N463D) Env on Env-pseudotyped virus produced in 293T cells (HIV-1)
[27] = target: HIV-1 clade C strain 426c Env on Env-pseudotyped virus produced in 293s/GnTI-/- cells (Man5-enrichment) (HIV-1)
[28] = target: HIV-1 426c.SM (N276D) Env on Env-pseudotyped virus produced in 293s/GnTI-/- cells (Man5-enrichment) (HIV-1)
[29] = target: HIV-1 Env 426c.SM (N276D), Env-pseudotyped virus produced in 293S GnTI- cells (Man5-enriched) (HIV-1 clade C strain 426c)
[30] = target: HIV-1 426c.DM (N460D/N463D) Env on Env-pseudotyped virus produced in 293T cells (HIV-1)
[31] = target: HIV-1 Env 426c.TM4 (S278R.G471S.N460D.N463D), Env-pseudotyped virus produced in 293T cells (HIV-1 clade C strain 426c)

Row | Substance | IC50 (µg/ml) in TZM-bl [1] | ID50/IC50 in TZM-bl [2] | IC50 (µg/ml) in TZM-bl [3] | IC50 (µg/ml) in TZM-bl [4] | IC50 (µg/ml) in TZM-bl [5] | IC50 (µg/ml) in TZM-bl [6] | IC50 (µg/ml) in TZM-bl [7] | ID50/IC50 in TZM-bl [8] | IC50 (µg/ml) in TZM-bl [9] | ID50/IC50 in TZM-bl [10] | IC50 (µg/ml) in TZM-bl [11] | IC50 (µg/ml) in TZM-bl [12] | IC50 (µg/ml) in TZM-bl [13] | IC50 (µg/ml) in TZM-bl [14] | IC50 (µg/ml) in TZM-bl [15] | IC50 (µg/ml) in TZM-bl [16] | IC50 (µg/ml) in TZM-bl [17] | IC50 (µg/ml) in TZM-bl [18] | IC50 (µg/ml) in TZM-bl [19] | IC50 (µg/ml) in TZM-bl [20] | further results
1 | PGT121 (antibody) | > 5 µg/mL | 3.4 µg/mL | > 5 µg/mL | 3.4 µg/mL | > 5 µg/mL | > 5 µg/mL | 2.5 µg/mL | 3.4 µg/mL | 3.4 µg/mL | > 5 µg/mL | > 5 µg/mL | > 5 µg/mL | > 5 µg/mL | > 5 µg/mL | > 5 µg/mL | > 20 µg/mL | > 5 µg/mL | > 5 µg/mL | > 5 µg/mL | > 5 µg/mL | ID50/IC50 in TZM-bl [21]: > 5 µg/mL; IC50 (µg/ml) in TZM-bl [22]: > 5 µg/mL; IC50 (µg/ml) in TZM-bl [23]: > 5 µg/mL; IC50 (µg/ml) in TZM-bl [24]: > 5 µg/mL; IC50 (µg/ml) in TZM-bl [25]: > 5 µg/mL; ID50/IC50 in TZM-bl [26]: > 5 µg/mL; ID50/IC50 in TZM-bl [27]: 2.5 µg/mL; ID50/IC50 in TZM-bl [28]: 4.2 µg/mL; IC50 (µg/ml) in TZM-bl [29]: 4.2 µg/mL; ID50/IC50 in TZM-bl [30]: > 5 µg/mL; IC50 (µg/ml) in TZM-bl [31]: > 5 µg/mL
2 | PGT128 (antibody) | > 5 µg/mL | > 5 µg/mL | > 5 µg/mL | > 5 µg/mL | > 5 µg/mL | > 5 µg/mL | 4.3 µg/mL | > 5 µg/mL | > 5 µg/mL | > 5 µg/mL | > 5 µg/mL | > 5 µg/mL | > 5 µg/mL | > 5 µg/mL | > 5 µg/mL | > 10 µg/mL | > 5 µg/mL | > 5 µg/mL | > 5 µg/mL | > 5 µg/mL | ID50/IC50 in TZM-bl [21]: > 5 µg/mL; IC50 (µg/ml) in TZM-bl [22]: > 5 µg/mL; IC50 (µg/ml) in TZM-bl [23]: > 5 µg/mL; IC50 (µg/ml) in TZM-bl [24]: > 5 µg/mL; IC50 (µg/ml) in TZM-bl [25]: > 5 µg/mL; ID50/IC50 in TZM-bl [26]: > 5 µg/mL; ID50/IC50 in TZM-bl [27]: 4.3 µg/mL; ID50/IC50 in TZM-bl [28]: > 5 µg/mL; IC50 (µg/ml) in TZM-bl [29]: > 5 µg/mL; ID50/IC50 in TZM-bl [30]: > 5 µg/mL; IC50 (µg/ml) in TZM-bl [31]: > 5 µg/mL
3 | PGT151 (antibody) | 0.01 µg/mL | 2.5 µg/mL | 0.01 µg/mL | 2.5 µg/mL | 0.01 µg/mL | 0.007 µg/mL | 1.6 µg/mL | 2.2 µg/mL | 2.2 µg/mL | 0.01 µg/mL | 0.01 µg/mL | > 5 µg/mL | > 5 µg/mL | > 5 µg/mL | 0.01 µg/mL | > 25 µg/mL | 0.01 µg/mL | > 5 µg/mL | 2.9 µg/mL | 0.13 µg/mL | ID50/IC50 in TZM-bl [21]: 0.01 µg/mL; IC50 (µg/ml) in TZM-bl [22]: > 5 µg/mL; IC50 (µg/ml) in TZM-bl [23]: 0.01 µg/mL; IC50 (µg/ml) in TZM-bl [24]: 0.01 µg/mL; IC50 (µg/ml) in TZM-bl [25]: 0.01 µg/mL; ID50/IC50 in TZM-bl [26]: 0.01 µg/mL; ID50/IC50 in TZM-bl [27]: 1.6 µg/mL; ID50/IC50 in TZM-bl [28]: 1.9 µg/mL; IC50 (µg/ml) in TZM-bl [29]: 1.9 µg/mL; ID50/IC50 in TZM-bl [30]: 0.01 µg/mL; IC50 (µg/ml) in TZM-bl [31]: 0.01 µg/mL
